The values below come from US20130261013A1 (MODPRO, published 2013).

For experiment [1], the target named is T1, α-casein (UniProt P02662 16-214, between 8 and 13 phosphate groups, at serine side chains).
T1 construct: Commercial α-casein is a mixture of subtypes; also called a-casein
T1 sequence (looked up): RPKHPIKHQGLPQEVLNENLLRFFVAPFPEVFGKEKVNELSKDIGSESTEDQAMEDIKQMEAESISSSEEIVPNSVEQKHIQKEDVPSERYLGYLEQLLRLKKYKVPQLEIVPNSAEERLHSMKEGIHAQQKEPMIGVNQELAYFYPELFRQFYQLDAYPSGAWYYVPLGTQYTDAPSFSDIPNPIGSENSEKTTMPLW
Kind of experiment: fluorescence titration, binder fixed at 100 nM, plotted against the free concentration of α-casein [lower panel, [a-casein]free]. As for the experimental part: (§1) For a more accurate determination of the dissociation constant, titration with protein at a binder concentration of 100 nM in 10 mM HEPES buffer and 150 mM NaCl at pH 7.2 was carried out (FIG. 12). At this concentration a more strongly emitting probe was required and fluorescein was attached to the side chain of Cys-24 by reacting the maleimide group with the free thiol of the polypeptide after removal of the acetamidomethyl (Acm) protection group. The binder concentration was kept constant at 100 nM and a series of samples were prepared where only the concentration of α-casein was varied.

Experiment [2] has as its target T1, α-casein. Kind of experiment: fluorescence titration, binder fixed at 100 nM, concentration of total α-casein varied [upper panel, [a-casein]tot]. As for the experimental part: as §1
(§2) A series of solutions were prepared. […] All solutions were prepared in HEPES buffer (pH=7.2, 10 mM HEPES, 150 mM NaCl).

The target in experiment [3] is T1, α-casein. Kind of experiment: fluorescence titration, 100 nM fluorescein labelled binder, α-casein 1 nM to 10 µM, 1:1 model. As for the experimental part:
as §1, §2

The target in experiment [4] is T1, α-casein. The experiment in a line: three-step fluorescence titration, 500 nM binder; rough estimate. Here is the method: In a preliminary and simple assay executable in microtitre plate format, each of the eight binder candidates at a concentration of 500 nM in 10 mM HEPES buffer and 150 mM NaCl at pH 7.2, equipped with the fluorophor 7-methoxycoumarin-3-carboxylic acid, were titrated with α-casein in three steps (FIG. 8). Concentrations of peptides were determined from the absorbance of the coumarine probe and stock solutions at concentrations of 5 μM were prepared from which aliqiuots were transferred to the microtitre plate. […] Saturation within experimental error at those concentrations is compatible with low nM affinity and tight binding.
In contrast, the differences in relative responses to increased concentrations of α-casein are related to differences in affinity. […] Nevertheless, it is a quick and informative experiment. From the fluorescence titrations the 4-series of binder candidates was estimated to have dissociation constants of around 5 nM or lower. […] It is concluded that the 3-series binders have dissociation constants in the high nM to the μM range. The nearly identical affinities within the 3-series and within the 4-series is probably fortuitous.

Ends that are not written are not given here. * marks the point of attachment. PP1 = 3,5-bis[[bis(2-pyridylmethyl)amino]methyl]benzoic acid, O=C(c1cc(CN(Cc2ccccn2)Cc2ccccn2)cc(CN(Cc2ccccn2)Cc2ccccn2)c1)*; X2 = 7‑methoxycoumarin‑3‑carboxylic acid, COc1ccc2cc(C(=O)*)c(=O)oc2c1 A value given as a limit tells only on which side of the number the result lay.

B1: 4-C15L8-PP1* (fluorescein on Cys-24) (designed binder)
chain: NAADLEAK(PP1)IRHLREKLAARGPRDC(fluorescein maleimide)AQLAEQLARRFERFARAG-NH2
modifications: not fully specified (N-terminus); also: PP1 chelating two Zn2+, group on Lys15 not given here
In general, EC50 (read off the curve) refers to the concentration needed to bring the measured effect to its halfway point. Higher therefore signals a less potent agent. Broadly, the Kd is a measure of binding affinity in units of concentration. As for B1, the “EC50 (read off the curve)” value with α-casein [1] is about 20 nM; with α-casein [2], about 70 nM. This molecule came in with a Kd in the experiment with α-casein [3] of 17 nM.

B2: 4-C25L22-PP1 (coumarin form, with Zn2+) (designed binder)
chain: NAADLEARIRHLRERLAARGPK(PP1)DCK(X2)QLAEQLARAFERFARAG-NH2
modifications: not fully specified (residue 24, N-terminus); also: two Zn2+ chelated by PP1
notes: Named only as a member of the 4-series
With B2, in the experiment with α-casein [4], the Kd was at most 5 nM.
